Experiment: First-order nonenzymatic deamidation of pentapeptides in Tris buffer
Format: physicochemical
Details: 0.15 M Tris HCl; for First-Order Deamidation Halftimes of GlyXxxGlnYyyGly: pH 7.4, 37.0 ° C., Gln pentapeptides, 52 values measured, rest derived from surface fitting; for First-Order Deamidation Halftimes of GlyXxxAsnYyyGly: pH 7.4, 37.0° C., Asn pentapeptides
Procedure, shortened: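 Pentapeptides containing Asn or Gln in varied flanking sequences incubated at 37° C., pH 7.4, 0.15 M Tris buffer; first-order deamidation rates measured. Some Asn values estimated from remaining data; many Gln values derived from surface fitting rather than measured.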

| Substance | First-Order Deamidation Halftimes of GlyXxxGlnYyyGly | First-Order Deamidation Halftimes of GlyXxxAsnYyyGly |
| --- | --- | --- |
| GlyIleGlnValGly (GIQVG; printed: GlyIleGlnValGly) | 7100 days | – |
| GlyLeuAsnAlaGly (GLNAG; printed: GlyLeuAsnAlaGly) | – | 25.1 days |
| GlyLeuAsnAmCysGly | – | 33.6 days |
| GlyLeuAsnArgGly (GLNRG; printed: GlyLeuAsnArgGly) | – | 62.1 days |
| GlyLeuAsnAspGly (GLNDG; printed: GlyLeuAsnAspGly) | – | 32.1 days |
| GlyLeuAsnCysGly (GLNCG; printed: GlyLeuAsnCysGly) | – | 53.5 days |
| GlyLeuAsnGluGly (GLNEG; printed: GlyLeuAsnGluGly) | – | 56.7 days |
| GlyLeuAsnGlyGly (GLNGG; printed: GlyLeuAsnGlyGly) | – | 1.08 days |
| GlyLeuAsnHisGly (GLNHG; printed: GlyLeuAsnHisGly) | – | 10.7 days |
| GlyLeuAsnIleGly (GLNIG; printed: GlyLeuAsnIleGly) | – | 391 days |
| GlyLeuAsnLeuGly (GLNLG; printed: GlyLeuAsnLeuGly) | – | 155 days |
| GlyLeuAsnLysGly (GLNKG; printed: GlyLeuAsnLysGly) | – | 60.1 days |
| GlyLeuAsnMetGly (GLNMG; printed: GlyLeuAsnMetGly) | – | 62.6 days |
| GlyLeuAsnPheGly (GLNFG; printed: GlyLeuAsnPheGly) | – | 72.4 days |
| GlyLeuAsnProGly (GLNPG; printed: GlyLeuAsnProGly) | – | 10500 days |
| GlyLeuAsnSerGly (GLNSG; printed: GlyLeuAsnSerGly) | – | 16.7 days |
| GlyLeuAsnThrGly (GLNTG; printed: GlyLeuAsnThrGly) | – | 46.1 days |
| GlyLeuAsnTrpGly (GLNWG; printed: GlyLeuAsnTrpGly) | – | 74.5 days |
| GlyLeuAsnTyrGly (GLNYG; printed: GlyLeuAsnTyrGly) | – | 75.7 days |
| GlyLeuAsnValGly (GLNVG; printed: GlyLeuAsnValGly) | – | 294 days |
| GlyLeuGlnAlaGly (GLQAG; printed: GlyLeuGlnAlaGly) | 6000 days | – |
| GlyLeuGlnArgGly (GLQRG; printed: GlyLeuGlnArgGly) | 7200 days | – |
| GlyLeuGlnAspGly (GLQDG; printed: GlyLeuGlnAspGly) | 7800 days | – |
| GlyLeuGlnCysGly (GLQCG; printed: GlyLeuGlnCysGly) | 2000 days | – |
| GlyLeuGlnGluGly (GLQEG; printed: GlyLeuGlnGluGly) | 7400 days | – |
| GlyLeuGlnGlyGly (GLQGG; printed: GlyLeuGlnGlyGly) | 670 days | – |
| GlyLeuGlnHisGly (GLQHG; printed: GlyLeuGlnHisGly) | 6100 days | – |

| Substance | First-Order Deamidation Halftimes of GlyXxxGlnYyyGly | First-Order Deamidation Halftimes of GlyXxxAsnYyyGly |
| --- | --- | --- |
| GlyLeuGlnIleGly (GLQIG; printed: GlyLeuGlnIleGly) | 6500 days | – |
| GlyLeuGlnLeuGly (GLQLG; printed: GlyLeuGlnLeuGly) | 6300 days | – |
| GlyLeuGlnLysGly (GLQKG; printed: GlyLeuGlnLysGly) | 6100 days | – |
| GlyLeuGlnMetGly (GLQMG; printed: GlyLeuGlnMetGly) | 4800 days | – |
| GlyLeuGlnPheGly (GLQFG; printed: GlyLeuGlnPheGly) | 8000 days | – |
| GlyLeuGlnProGly (GLQPG; printed: GlyLeuGlnProGly) | 10000 days | – |
| GlyLeuGlnSerGly (GLQSG; printed: GlyLeuGlnSerGly) | 5800 days | – |
| GlyLeuGlnThrGly (GLQTG; printed: GlyLeuGlnThrGly) | 5300 days | – |
| GlyLeuGlnTrpGly (GLQWG; printed: GlyLeuGlnTrpGly) | 16000 days | – |
| GlyLeuGlnTyrGly (GLQYG; printed: GlyLeuGlnTyrGly) | 12000 days | – |
| GlyLeuGlnValGly (GLQVG; printed: GlyLeuGlnValGly) | 6800 days | – |
| GlyLysAsnAlaGly (GKNAG; printed: GlyLysAsnAlaGly) | – | 23.6 days |
| GlyLysAsnAmCysGly | – | 36.5 days |
| GlyLysAsnArgGly (GKNRG; printed: GlyLysAsnArgGly) | – | 57.4 days |
| GlyLysAsnAspGly (GKNDG; printed: GlyLysAsnAspGly) | – | 34.0 days |
| GlyLysAsnCysGly (GKNCG; printed: GlyLysAsnCysGly) | – | 49.0 days |
| GlyLysAsnGluGly (GKNEG; printed: GlyLysAsnGluGly) | – | 72.5 days |
| GlyLysAsnGlyGly (GKNGG; printed: GlyLysAsnGlyGly) | – | 1.02 days |
| GlyLysAsnHisGly (GKNHG; printed: GlyLysAsnHisGly) | – | 10.5 days |
| GlyLysAsnIleGly (GKNIG; printed: GlyLysAsnIleGly) | – | 313 days |
| GlyLysAsnLeuGly (GKNLG; printed: GlyLysAsnLeuGly) | – | 119 days |
| GlyLysAsnLysGly (GKNKG; printed: GlyLysAsnLysGly) | – | 53.5 days |
| GlyLysAsnMetGly (GKNMG; printed: GlyLysAsnMetGly) | – | 60.9 days |
| GlyLysAsnPheGly (GKNFG; printed: GlyLysAsnPheGly) | – | 70.1 days |
| GlyLysAsnProGly (GKNPG; printed: GlyLysAsnProGly) | – | 4940 days |
| GlyLysAsnSerGly (GKNSG; printed: GlyLysAsnSerGly) | – | 15.6 days |
| GlyLysAsnThrGly (GKNTG; printed: GlyLysAsnThrGly) | – | 58.1 days |
